The results in this text go back to US20250339531A1, “DUX4 POLYPEPTIDES AND NUCLEIC ACIDS FOR TREATING INFLAMMATORY AND AUTOIMMUNE CONDITIONS” (Fred Hutchinson Cancer Center, priority 2021, published 2025).

In the assay the test system is proteins that co-immunoprecipitated with DUX4-CTD constructs expressed in MB135 myoblasts. As to the kind of experiment: LC-MS of proteins co-immunoprecipitated with DUX4-CTD (Table 1) and western validation. The format is binding, human. More on the design: key to 4. mL1dL2 + Dox + IFNG / 4. + IFNG mix / 4. longCTD + Dox + IFNG / 3. + IFNg + Dox longCTD / 3. + Dox longCTD / 3. + IFNG longCTD: peptide-spectrum matches (PSMs) per protein. Conditions: for 4. longCTD + Dox + IFNG: LC-MS counts of the listed protein co-immunoprecipitated with DUX4-CTD bait longCTD, experiment 4, Dox + IFNG; for 3. + IFNg + Dox longCTD: experiment 3, IFNg + Dox; for SUM of PSMS: sum over all samples; for 3. + Dox longCTD: experiment 3, Dox only. An outline of the steps: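 FLAG-tagged DUX4-CTD expressed in doxycycline-induced MB135 myoblasts, some also IFNG-treated; nuclear lysates in pH 7.4 NP-40 IP buffer were pre-cleared, then anti-FLAG immunoprecipitated 3 h at 4 °C. For LC-MS, FLAG-peptide elution, in-gel trypsin digest, Orbitrap analysis; proteins with ≥2 PSMs in both experiments categorised and ranked by total PSMs.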

B1: Q13263 (protein, UniProt Q13263 1-835, looked up)
chain: MAASAAAASAAAASAASGSPGPGEGSAGGEKRSTAPSAAASASASAAASSPAGGGAEALELLEHCGVCRERLRPEREPRLLPCLHSACSACLGPAAPAAANSSGDGGAAGDGTVVDCPVCKQQCFSKDIVENYFMRDSGSKAATDAQDANQCCTSCEDNAPATSYCVECSEPLCETCVEAHQRVKYTKDHTVRSTGPAKSRDGERTVYCNVHKHEPLVLFCESCDTLTCRDCQLNAHKDHQYQFLEDAVRNQRKLLASLVKRLGDKHATLQKSTKEVRSSIRQVSDVQKRVQVDVKMAILQIMKELNKRGRVLVNDAQKVTEGQQERLERQHWTMTKIQKHQEHILRFASWALESDNNTALLLSKKLIYFQLHRALKMIVDPVEPHGEMKFQWDLNAWTKSAEAFGKIVAERPGTNSTGPAPMAPPRAPGPLSKQGSGSSQPMEVQEGYGFGSGDDPYSSAEPHVSGVKRSRSGEGEVSGLMRKVPRVSLERLDLDLTADSQPPVFKVFPGSTTEDYNLIVIERGAAAAATGQPGTAPAGTPGAPPLAGMAIVKEEETEAAIGAPPTATEGPETKPVLMALAEGPGAEGPRLASPSGSTSSGLEVVAPEGTSAPGGGPGTLDDSATICRVCQKPGDLVMCNQCEFCFHLDCHLPALQDVPGEEWSCSLCHVLPDLKEEDGSLSLDGADSTGVVAKLSPANQRKCERVLLALFCHEPCRPLHQLATDSTFSLDQPGGTLDLTLIRARLQEKLSPPYSSPQEFAQDVGRMFKQFNKLTEDKADVQSIIGLQRFFETRMNEAFGDTKFSAVLVEPPPMSLPGAGLSSQELSGGPGDGP
modifications: full-length
Consider B1, for which the “4. longCTD + Dox + IFNG” value was found to be 2 and the “SUM of PSMS” value is recorded as 12. Besides, the “3. + IFNg + Dox longCTD” value (bait longCTD) stood at 1.

B2: P11802 (protein, UniProt P11802 1-303, looked up)
chain: MATSRYEPVAEIGVGAYGTVYKARDPHSGHFVALKSVRVPNGGGGGGGLPISTVREVALLRRLEAFEHPNVVRLMDVCATSRTDREIKVTLVFEHVDQDLRTYLDKAPPPGLPAETIKDLMRQFLRGLDFLHANCIVHRDLKPENILVTSGGTVKLADFGLARIYSYQMALTPVVVTLWYRAPEVLLQSTYATPVDMWSVGCIFAEMFRRKPLFCGNSEADQLGKIFDLIGLPPEDDWPRDVSLPRGAFPPRGPRPVQSVVPEMEESGAQLLLEMLTFNPHKRISAFRALQHSYLHKDEGNPE
modifications: full-length
With B2, the “4. longCTD + Dox + IFNG” value was found to be 11 and the “SUM of PSMS” value turned out to be 16. Further, for the setting “bait longCTD”, the “3. + Dox longCTD” value is reported as 1 and the “3. + IFNg + Dox longCTD” value is given as 1.

B3: O14929 (protein, UniProt O14929 1-419, looked up)
chain: MAGFGAMEKFLVEYKSAVEKKLAEYKCNTNTAIELKLVRFPEDLENDIRTFFPEYTHQLFGDDETAFGYKGLKILLYYIAGSLSTMFRVEYASKVDENFDCVEADDVEGKIRQIIPPGFCTNTNDFLSLLEKEVDFKPFGTLLHTYSVLSPTGGENFTFQIYKADMTCRGFREYHERLQTFLMWFIETASFIDVDDERWHYFLVFEKYNKDGATLFATVGYMTVYNYYVYPDKTRPRVSQMLILTPFQGQGHGAQLLETVHRYYTEFPTVLDITAEDPSKSYVKLRDFVLVKLCQDLPCFSREKLMQGFNEDMVIEAQQKFKINKQHARRVYEILRLLVTDMSDAEQYRSYRLDIKRRLISPYKKKQRDLAKMRKCLRPEELTNQMNQIEISMQHEQLEESFQELVEDYRRVIERLAQE
modifications: full-length
Take B3: the “4. longCTD + Dox + IFNG” value came to 9 and the “SUM of PSMS” value turned out to be 23. In addition, for the setting “bait longCTD”, the “3. + IFNg + Dox longCTD” value is recorded as 3.

B4: Q15393 (protein, UniProt Q15393 1-1217, looked up)
chain: MFLYNLTLQRATGISFAIHGNFSGTKQQEIVVSRGKILELLRPDPNTGKVHTLLTVEVFGVIRSLMAFRLTGGTKDYIVVGSDSGRIVILEYQPSKNMFEKIHQETFGKSGCRRIVPGQFLAVDPKGRAVMISAIEKQKLVYILNRDAAARLTISSPLEAHKANTLVYHVVGVDVGFENPMFACLEMDYEEADNDPTGEAAANTQQTLTFYELDLGLNHVVRKYSEPLEEHGNFLITVPGGSDGPSGVLICSENYITYKNFGDQPDIRCPIPRRRNDLDDPERGMIFVCSATHKTKSMFFFLAQTEQGDIFKITLETDEDMVTEIRLKYFDTVPVAAAMCVLKTGFLFVASEFGNHYLYQIAHLGDDDEEPEFSSAMPLEEGDTFFFQPRPLKNLVLVDELDSLSPILFCQIADLANEDTPQLYVACGRGPRSSLRVLRHGLEVSEMAVSELPGNPNAVWTVRRHIEDEFDAYIIVSFVNATLVLSIGETVEEVTDSGFLGTTPTLSCSLLGDDALVQVYPDGIRHIRADKRVNEWKTPGKKTIVKCAVNQRQVVIALTGGELVYFEMDPSGQLNEYTERKEMSADVVCMSLANVPPGEQRSRFLAVGLVDNTVRIISLDPSDCLQPLSMQALPAQPESLCIVEMGGTEKQDELGERGSIGFLYLNIGLQNGVLLRTVLDPVTGDLSDTRTRYLGSRPVKLFRVRMQGQEAVLAMSSRSWLSYSYQSRFHLTPLSYETLEFASGFASEQCPEGIVAISTNTLRILALEKLGAVFNQVAFPLQYTPRKFVIHPESNNLIIIETDHNAYTEATKAQRKQQMAEEMVEAAGEDERELAAEMAAAFLNENLPESIFGAPKAGNGQWASVIRVMNPIQGNTLDLVQLEQNEAAFSVAVCRFSNTGEDWYVLVGVAKDLILNPRSVAGGFVYTYKLVNNGEKLEFLHKTPVEEVPAAIAPFQGRVLIGVGKLLRVYDLGKKKLLRKCENKHIANYISGIQTIGHRVIVSDVQESFIWVRYKRNENQLIIFADDTYPRWVTTASLLDYDTVAGADKFGNICVVRLPPNTNDEVDEDPTGNKALWDRGLLNGASQKAEVIMNYHVGETVLSLQKTTLIPGGSESLVYTTLSGGIGILVPFTSHEDHDFFQHVEMHLRSEHPPLCGRDHLSFRSYYFPVKNVIDGDLCEQFNSMEPNKQKNVSEELDRTPPEVSKKLEDIRTRYAF
modifications: full-length
Take B4: the “4. longCTD + Dox + IFNG” value turned out to be 1 and the “SUM of PSMS” value is recorded as 15. Besides, for the setting “bait longCTD”, the “3. + Dox longCTD” value was 1 and the “3. + IFNg + Dox longCTD” value is on record as 3.

B5: CDK4 (protein)
chain: ATSRYEPVAEIGVGAYGTVYKARDPHSGHFVALKSVRVPNGGGGGGGLPISTVREVALLRRLEAFEHPNVVRLMDVCATSRTDREIKVTLVFEHVDQDLRTYLDKAPPPGLPAETIKDLMRQFLRGLDFLHANCIVHRDLKPENILVTSGGTVKLADFGLARIYSYQMALTPVVVTLWYRAPEVLLQSTYATPVDMWSVGCIFAEMFRRKPLFCGNSEADQLGKIFDLIGLPPEDDWPRDVSLPRGAFPPRGPRPVQSVVPEMEESGAQLLLEMLTFNPHKRISAFRALQHSYLHKDEGNPE
For the molecule B5, the “4. mL1dL2 + Dox + IFNG” value (LC-MS value per protein co-immunoprecipitated with DUX4-CTD construct mL1dL2 in MB135 myoblasts, + Dox + IFNG, kind of count not given) came out at 3.

B6: P13489 (protein, UniProt P13489 1-461, looked up)
chain: MSLDIQSLDIQCEELSDARWAELLPLLQQCQVVRLDDCGLTEARCKDISSALRVNPALAELNLRSNELGDVGVHCVLQGLQTPSCKIQKLSLQNCCLTGAGCGVLSSTLRTLPTLQELHLSDNLLGDAGLQLLCEGLLDPQCRLEKLQLEYCSLSAASCEPLASVLRAKPDFKELTVSNNDINEAGVRVLCQGLKDSPCQLEALKLESCGVTSDNCRDLCGIVASKASLRELALGSNKLGDVGMAELCPGLLHPSSRLRTLWIWECGITAKGCGDLCRVLRAKESLKELSLAGNELGDEGARLLCETLLEPGCQLESLWVKSCSFTAACCSHFSSVLAQNRFLLELQISNNRLEDAGVRELCQGLGQPGSVLRVLWLADCDVSDSSCSSLAATLLANHSLRELDLSNNCLGDAGILQLVESVRQPGCLLEQLVLYDIYWSEEMEDRLQALEKDKPSLRVIS
modifications: full-length
As for B6, the “4. longCTD + Dox + IFNG” value was 4 and the “SUM of PSMS” value amounted to 15. Also, under “bait longCTD, experiment 3, IFNG only, no doxycycline (bait at background level)”, the “3. + IFNG longCTD” value is given as 1.

B7: Q9NQC3 (protein, UniProt Q9NQC3 1-1192, looked up)
chain: MEDLDQSPLVSSSDSPPRPQPAFKYQFVREPEDEEEEEEEEEEDEDEDLEELEVLERKPAAGLSAAPVPTAPAAGAPLMDFGNDFVPPAPRGPLPAAPPVAPERQPSWDPSPVSSTVPAPSPLSAAAVSPSKLPEDDEPPARPPPPPPASVSPQAEPVWTPPAPAPAAPPSTPAAPKRRGSSGSVDETLFALPAASEPVIRSSAENMDLKEQPGNTISAGQEDFPSVLLETAASLPSLSPLSAASFKEHEYLGNLSTVLPTEGTLQENVSEASKEVSEKAKTLLIDRDLTEFSELEYSEMGSSFSVSPKAESAVIVANPREEIIVKNKDEEEKLVSNNILHNQQELPTALTKLVKEDEVVSSEKAKDSFNEKRVAVEAPMREEYADFKPFERVWEVKDSKEDSDMLAAGGKIESNLESKVDKKCFADSLEQTNHEKDSESSNDDTSFPSTPEGIKDRSGAYITCAPFNPAATESIATNIFPLLGDPTSENKTDEKKIEEKKAQIVTEKNTSTKTSNPFLVAAQDSETDYVTTDNLTKVTEEVVANMPEGLTPDLVQEACESELNEVTGTKIAYETKMDLVQTSEVMQESLYPAAQLCPSFEESEATPSPVLPDIVMEAPLNSAVPSAGASVIQPSSSPLEASSVNYESIKHEPENPPPYEEAMSVSLKKVSGIKEEIKEPENINAALQETEAPYISIACDLIKETKLSAEPAPDFSDYSEMAKVEQPVPDHSELVEDSSPDSEPVDLFSDDSIPDVPQKQDETVMLVKESLTETSFESMIEYENKEKLSALPPEGGKPYLESFKLSLDNTKDTLLPDEVSTLSKKEKIPLQMEELSTAVYSNDDLFISKEAQIRETETFSDSSPIEIIDEFPTLISSKTDSFSKLAREYTDLEVSHKSEIANAPDGAGSLPCTELPHDLSLKNIQPKVEEKISFSDDFSKNGSATSKVLLLPPDVSALATQAEIESIVKPKVLVKEAEKKLPSDTEKEDRSPSAIFSAELSKTSVVDLLYWRDIKKTGVVFGASLFLLLSLTVFSIVSVTAYIALALLSVTISFRIYKGVIQAIQKSDEGHPFRAYLESEVAISEELVQKYSNSALGHVNCTIKELRRLFLVDDLVDSLKFAVLMWVFTYVGALFNGLTLLILALISLFSVPVIYERHQAQIDHYLGLANKNVKDAMAKIQAKIPGLKRKAE
modifications: full-length
Consider B7, for which the “4. longCTD + Dox + IFNG” value was 6 and the “SUM of PSMS” value turned out to be 23. The “3. + IFNg + Dox longCTD” value (bait longCTD) amounted to 7.
